For one substance, pKa results are on record in article PMC6385126.

In data set [1] the test system is His1 (position 1, -----HVD---). Put plainly: NMR. Conditions: 25 °C; none stated (0.1% DSS as shift standard); Non-deuterated peptide, 1 mM, free in solution.
Data set [2] concerns His1 (position 1, -----HVD---). Nature of the data set: Raman. The conditions noted are these: 22 °C; not stated (no added salt apart from NaOH/HCl used for pH adjustment); none stated; C2-deuterated peptide H(C2-D)VD, about 10 mM, free in solution.

The pKa is the negative logarithm of the acid dissociation constant.

“HVD tripeptide (Ac-His-Val-Asp-NH2), N-terminal fragment of a hydrogel-forming semenogelin I peptide (synthetic; sequence derived from Homo sapiens semenogelin I)”: the pKa in data set [1] was 6.87 ± 0.03; in data set [2] it was 6.82.
